Conditions in all cases: protein: recombinant; tags: N-terminal His-SUMO removed by TEV; label: 5'-6-FAM; predicted intramolecular fold
The target of data set [1] is T1, PARP4 BRCT-WGR-CAT WT (human, UniProt Q9UKK3 1-573).
T1 sequence: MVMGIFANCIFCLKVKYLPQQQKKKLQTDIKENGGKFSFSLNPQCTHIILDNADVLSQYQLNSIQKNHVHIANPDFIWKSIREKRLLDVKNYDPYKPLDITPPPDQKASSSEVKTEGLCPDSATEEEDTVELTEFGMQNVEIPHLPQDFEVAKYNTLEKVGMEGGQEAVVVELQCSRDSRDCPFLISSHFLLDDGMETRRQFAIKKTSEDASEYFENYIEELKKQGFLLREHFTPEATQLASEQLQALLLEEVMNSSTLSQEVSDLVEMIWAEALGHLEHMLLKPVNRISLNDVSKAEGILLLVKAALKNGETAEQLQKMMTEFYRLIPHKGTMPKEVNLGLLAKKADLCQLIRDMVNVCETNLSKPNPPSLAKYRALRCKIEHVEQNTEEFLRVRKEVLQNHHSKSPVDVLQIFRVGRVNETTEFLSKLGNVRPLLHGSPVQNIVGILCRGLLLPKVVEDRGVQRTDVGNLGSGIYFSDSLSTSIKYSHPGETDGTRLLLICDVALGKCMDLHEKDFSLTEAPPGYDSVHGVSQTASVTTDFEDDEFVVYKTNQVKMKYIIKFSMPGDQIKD
Nature of the data set: EMSA; 20 nM probe; FP: 50 mM Tris pH 7.5, 50 mM NaCl, 1 mM MgCl2, 0.05% NP40, 2 mM DTT, 5% glycerol, 25 ug/ml BSA, room temp 30 min; EMSA: 50 mM Tris pH 7.5, 50 mM NaCl, 4% Ficoll PM400, 0.05% NP40, 2 mM DTT, 0-18 uM protein, room temp 30 min, gel at 4 C. In general terms: Mobility shift assays separate free from complexed probe on a gel.

The target in data set [2] is T2, PARP4 BRCT K31Q (human, UniProt Q9UKK3 1-100, K31Q).
T2 sequence: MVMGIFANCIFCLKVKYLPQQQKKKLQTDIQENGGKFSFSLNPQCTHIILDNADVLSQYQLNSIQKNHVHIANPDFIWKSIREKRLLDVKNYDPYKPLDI
Described as above.

Data set [3] has as its target T3, PARP4 BRCT F39A (human, UniProt Q9UKK3 1-100, F39A).
T3 sequence: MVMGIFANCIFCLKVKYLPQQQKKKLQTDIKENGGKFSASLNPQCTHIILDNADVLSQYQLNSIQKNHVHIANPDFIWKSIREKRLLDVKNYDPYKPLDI
Described as above.

Data set [4] addresses T4, PARP4 BRCT F39Q (human, UniProt Q9UKK3 1-100, F39Q).
T4 sequence: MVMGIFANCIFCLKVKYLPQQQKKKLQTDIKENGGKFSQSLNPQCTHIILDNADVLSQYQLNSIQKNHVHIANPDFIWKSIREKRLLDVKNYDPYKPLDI
Described as above.

In data set [5] the target is T5, PARP4 BRCT K23/24Q (human, UniProt Q9UKK3 1-100, K23Q;K24Q).
T5 sequence: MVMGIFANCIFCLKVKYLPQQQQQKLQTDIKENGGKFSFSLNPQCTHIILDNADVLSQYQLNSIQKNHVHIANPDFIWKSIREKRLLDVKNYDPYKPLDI
Kind of data set: FP; 3 nM probe; FP: 50 mM Tris pH 7.5, 50 mM NaCl, 1 mM MgCl2, 0.05% NP40, 2 mM DTT, 5% glycerol, 25 ug/ml BSA, room temp 30 min; EMSA: 50 mM Tris pH 7.5, 50 mM NaCl, 4% Ficoll PM400, 0.05% NP40, 2 mM DTT, 0-18 uM protein, room temp 30 min, gel at 4 C.

Data set [6] has as its target T3, PARP4 BRCT F39A. The description is as above.
The target of data set [7] is T6, PARP4 BRCT WT (human, UniProt Q9UKK3 1-100).
T6 sequence: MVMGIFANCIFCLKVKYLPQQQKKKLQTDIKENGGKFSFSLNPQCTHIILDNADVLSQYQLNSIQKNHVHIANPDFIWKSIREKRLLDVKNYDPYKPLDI
The data set is described as above.

Data set [8] concerns the target T6, PARP4 BRCT WT. Kind of data set: FP; 3 nM probe, probe concentration comparison; FP: 50 mM Tris pH 7.5, 50 mM NaCl, 1 mM MgCl2, 0.05% NP40, 2 mM DTT, 5% glycerol, 25 ug/ml BSA, room temp 30 min; EMSA: 50 mM Tris pH 7.5, 50 mM NaCl, 4% Ficoll PM400, 0.05% NP40, 2 mM DTT, 0-18 uM protein, room temp 30 min, gel at 4 C.

B1: vtRNA1-3 (structured_RNA)
RNA: GGCUGGCUUUAGCUCAGCGGUUACUUCGCGUGUCAUCAAACCACCUCUCUGGGUUGUUCGAGACCCGCGGGCGCUCUCCAGCCCUCUU
B1: the Kd in data set [1] was 3000 ± 1000 nM; in data set [2] it was 3000 ± 1000 nM; in data set [3] it was 600 ± 100 nM; in data set [4], 900 ± 500 nM; in data set [6] it was 33 ± 2 µM; in data set [7] it was 19 ± 4 µM. Also, the Kd in data set [8] was 19 ± 3 µM. Also, the binding result in data set [5] is recorded as “no binding”.

One may read the Kd as the free concentration of one partner at which half of the binding sites on the other are occupied at equilibrium, for simple one-to-one binding.
